From PMC2241622, “Aminopeptidase B, a glucagon-processing enzyme: site directed mutagenesis of the Zn^2+-binding motif and molecular modelling” (BMC Biochemistry, 2007)
Like-named read-outs stand apart in the source and are kept apart here. One block for each molecule: values may come before it.

Assays:
[1] = molecular target: T1, Aminopeptidase B (His-rAp-B) (Rattus norvegicus, UniProt O09175); assay: L-Arg-β-NA hydrolysis assay with recombinant enzyme; Ki and percent inhibition ([…] at […]); format: biochemical
T1 construct: gene Rnpep; His-tagged full-length rat Ap-B (673 residues incl. His-tag/Factor Xa site; 650-residue Ap-B) from E. coli
T1 sequence (O09175 1-650): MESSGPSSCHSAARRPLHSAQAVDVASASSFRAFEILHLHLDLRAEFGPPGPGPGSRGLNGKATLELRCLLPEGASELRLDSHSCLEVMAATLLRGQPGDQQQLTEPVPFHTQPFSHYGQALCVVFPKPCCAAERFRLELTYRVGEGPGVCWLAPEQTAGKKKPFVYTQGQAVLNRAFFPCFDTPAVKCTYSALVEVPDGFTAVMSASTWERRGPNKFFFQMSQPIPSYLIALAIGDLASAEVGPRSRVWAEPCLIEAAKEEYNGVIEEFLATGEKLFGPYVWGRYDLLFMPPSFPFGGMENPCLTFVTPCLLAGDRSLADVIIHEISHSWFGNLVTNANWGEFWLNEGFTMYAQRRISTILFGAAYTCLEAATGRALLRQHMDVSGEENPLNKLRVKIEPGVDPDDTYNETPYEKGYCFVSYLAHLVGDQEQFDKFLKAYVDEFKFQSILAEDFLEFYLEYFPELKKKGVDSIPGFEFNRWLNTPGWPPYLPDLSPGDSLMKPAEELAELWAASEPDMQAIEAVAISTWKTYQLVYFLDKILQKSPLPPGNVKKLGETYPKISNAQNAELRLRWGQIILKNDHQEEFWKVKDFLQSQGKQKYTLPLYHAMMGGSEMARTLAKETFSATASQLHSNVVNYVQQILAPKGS

[2] = molecular target: T1, Aminopeptidase B (His-rAp-B); assay: as above; format: biochemical; remark: listed apart in the source
[3] = molecular target: T1, Aminopeptidase B (His-rAp-B); assay: as above; format: biochemical; remark: listed apart in the source
purified protein [4] = substrate: NCCCC[C@H](N)C(=O)Nc1ccc2ccccc2c1; assay: purified protein; format: biochemical, Rattus norvegicus; conditions: Zn2+
purified protein [5] = substrate: N=C(N)NCCC[C@H](N)C(=O)Nc1ccc2ccccc2c1; assay: purified protein; format: biochemical, Rattus norvegicus; conditions: Zn2+

Ki [1]: 20 nM
Molecule: N=C(N)NCCC[C@H](N)C(=O)C[C@@H](Cc1ccc(O)cc1)C(=O)O [Arphamenine B]

Ki [2]: 50 nM
Molecule: CC(C)C[C@H](NC(=O)[C@@H](O)[C@H](N)Cc1ccccc1)C(=O)O [Bestatin]

Ki [3]: 20 nM
Molecule: NC(N)=NCCC[C@H](N)C(=O)C[C@@H](Cc1ccccc1)C(=O)O [Arphamenine A]

B1: Aminopeptidase B (His-rAp-B) (Rattus norvegicus) (protein)
chain: T1 sequence (O09175 1-650)
notes: His-tagged full-length rat Ap-B (673 residues incl. His-tag/Factor Xa site; 650-residue Ap-B) from E. coli, Ni-NTA purified
Km (purified protein [4]): 135 ± 30 µM
Vmax (purified protein [4]): 3.9 µM/min
kcat (purified protein [4]): 3 ± 0.35 s⁻¹
kcat/Km (purified protein [4]): 22000 ± 2000 M⁻¹ s⁻¹
Km (purified protein [5]): 108 ± 13 µM
Vmax (purified protein [5]): 8.76 µM/min
kcat (purified protein [5]): 20 ± 3 s⁻¹
kcat/Km (purified protein [5]): 185000 M⁻¹ s⁻¹
